The values below come from patent US20180215825A1 (BEIGENE, published 2018).

What all share (assay): ELISA, FcγR-His coated, preformed immune complex of the mAb
For orientation: ELISA stands for enzyme-linked immunosorbent assay.

Assay [1] deals with T1, FcγRIIAH131 extracellular domain, His tag (human, UniProt P12318 34-217).
T1 construct: extracellular domain
T1 sequence (looked up): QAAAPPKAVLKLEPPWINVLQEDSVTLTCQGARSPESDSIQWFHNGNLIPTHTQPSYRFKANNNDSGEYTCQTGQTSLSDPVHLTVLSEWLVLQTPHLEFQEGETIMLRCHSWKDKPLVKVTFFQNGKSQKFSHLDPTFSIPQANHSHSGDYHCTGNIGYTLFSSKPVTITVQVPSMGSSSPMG
How it is done:
(§1) The extracellular domains of FcγRs were fused to C-terminal His tags as described in previous sections. Recombinant proteins were expressed in 293-F cells by transient transfection and purified using Ni-Sepharose column followed by gel filtration column as described. 2-5 μg/mL of FcγRs were coated on Nunc MaxiSorp ELISA plates (Cat. No. 442404, Nunc, Thermo Fisher) except FcγRIIB and FcγRIIIB, Ni-chelate plates were used (Cat. No. 15242, Pierce, Thermo Fisher). After washing and blocking of the wells, a preformed immune-complex was added to each well and incubated at room temperature for 1-2 hours. […] After washing the plate four times, binding signals were detected by chemiluminescence using Immobilon Chemiluminescence Substrate A/B (Cat. No. WBKLS0500, Millipore).

The target in assay [2] is T2, FcγRIIAR131 extracellular domain, His tag (human, UniProt P12318 34-217).
T2 construct: extracellular domain
T2 sequence (looked up): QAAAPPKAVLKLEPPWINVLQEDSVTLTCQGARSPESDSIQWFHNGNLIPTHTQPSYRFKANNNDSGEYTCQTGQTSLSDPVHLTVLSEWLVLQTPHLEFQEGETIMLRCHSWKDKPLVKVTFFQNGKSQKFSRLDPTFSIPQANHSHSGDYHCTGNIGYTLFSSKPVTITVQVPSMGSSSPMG
On the procedure:
as §1

The target of assay [3] is T3, FcγRI extracellular domain, His tag (human, UniProt P12314 16-292).
T3 construct: extracellular domain
T3 sequence (P12314 16-292): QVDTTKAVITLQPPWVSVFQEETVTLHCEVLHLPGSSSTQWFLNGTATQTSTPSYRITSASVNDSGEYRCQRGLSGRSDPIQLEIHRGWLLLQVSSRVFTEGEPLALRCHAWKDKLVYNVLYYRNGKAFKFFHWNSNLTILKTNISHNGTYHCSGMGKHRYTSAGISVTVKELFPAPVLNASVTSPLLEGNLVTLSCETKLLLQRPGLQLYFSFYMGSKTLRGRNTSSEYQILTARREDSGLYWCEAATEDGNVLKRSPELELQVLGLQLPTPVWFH
How it is done:
as §1

Assay [4] concerns the target T4, FcγRIIIAF158 extracellular domain, His tag (human, UniProt P08637 17-208).
T4 construct: extracellular domain
How it is done: as §1

T4 sequence (P08637 17-208): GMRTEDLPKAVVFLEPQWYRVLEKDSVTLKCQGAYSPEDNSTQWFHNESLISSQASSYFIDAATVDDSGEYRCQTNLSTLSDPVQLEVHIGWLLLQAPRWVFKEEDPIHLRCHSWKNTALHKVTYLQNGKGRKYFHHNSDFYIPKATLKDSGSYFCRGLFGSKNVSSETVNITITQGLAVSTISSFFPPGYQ

B1: hu333-4A2-IgG1wt (antibody)
heavy: not shown
VL: DIQMTQSPSSLSASVGDRVTITCKASQDVGIVVAWYQQKPGKAPKLLIYWASIRHTGVPSRFSGSGSGTEFTLTISSLQPDDFATYYCQQYSNYPLYTFGQGTKVEIK
notes: light chain constant region (kappa) not tied to an entry for this form
As for B1, the Chemiluminescence in assay [1] was determined as 54600; in assay [2] it was 50200; in assay [3] it was 42700; in assay [4], 36400.
